Patent US20210040232A1 (Regeneron, published 2021)

T1: soluble Macaca fascicularis CTLA-4 expressed with a C-terminal myc-myc-polyhistidine tag (Macaca fascicularis)
T1 construct: soluble protein; also called mf CTLA-4.mmh; mfCTLA4.mmh
T1 chain: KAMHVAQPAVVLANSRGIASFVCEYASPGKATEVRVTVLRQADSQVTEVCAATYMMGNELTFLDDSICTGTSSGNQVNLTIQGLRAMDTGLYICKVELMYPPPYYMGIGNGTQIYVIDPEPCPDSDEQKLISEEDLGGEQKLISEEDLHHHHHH


Experiments:
[1] = target: T2, soluble human CTLA-4 expressed with a C-terminal myc-myc-polyhistidine tag (human); test: SPR, mAb capture, 25 C
T2 construct: soluble protein; also called hCTLA-4.mmh; hCTLA4.mmh

[2] = target: T1, soluble Macaca fascicularis CTLA-4 …; test: SPR, mAb capture, 25 C
[3] = target: mf CTLA-4 extracellular domain (aa 1-161) fused to the trans-membrane and cytoplasmic domain of hCD300a (aa … (Macaca fascicularis; human, UniProt G7PL88 1-161; Q9UGN4 181-299); test: cell-based or functional assay
[4] = target: T3, hCTLA-4 extracellular domain (aa 1-161) fused to the trans-membrane and cytoplasmic domain of hCD300a (aa … (human, UniProt Q9UGN4 181-299)); test: cell-based or functional assay
T3 sequence (Q9UGN4 other isoform, or with tags, fused parts or gaps limits assumed, form in doubt): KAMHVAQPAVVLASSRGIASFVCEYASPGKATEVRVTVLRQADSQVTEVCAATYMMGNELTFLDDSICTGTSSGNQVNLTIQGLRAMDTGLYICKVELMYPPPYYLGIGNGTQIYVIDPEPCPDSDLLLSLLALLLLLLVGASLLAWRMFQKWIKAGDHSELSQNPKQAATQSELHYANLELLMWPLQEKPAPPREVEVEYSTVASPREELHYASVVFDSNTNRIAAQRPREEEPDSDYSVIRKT

[5] = target: T4, recombinant hCTLA-4-mFc (human CTLA-4 extracellular domain with a C-terminal Fc portion of mouse IgG2a) (human); test: competition ELISA, 200 pM hCTLA-4-mFc on plate-coated hB7-1-hIgG1-6His
T4 construct: also called dimeric CTLA-4 protein
T4 sequence (chain, as listed by the source limits assumed): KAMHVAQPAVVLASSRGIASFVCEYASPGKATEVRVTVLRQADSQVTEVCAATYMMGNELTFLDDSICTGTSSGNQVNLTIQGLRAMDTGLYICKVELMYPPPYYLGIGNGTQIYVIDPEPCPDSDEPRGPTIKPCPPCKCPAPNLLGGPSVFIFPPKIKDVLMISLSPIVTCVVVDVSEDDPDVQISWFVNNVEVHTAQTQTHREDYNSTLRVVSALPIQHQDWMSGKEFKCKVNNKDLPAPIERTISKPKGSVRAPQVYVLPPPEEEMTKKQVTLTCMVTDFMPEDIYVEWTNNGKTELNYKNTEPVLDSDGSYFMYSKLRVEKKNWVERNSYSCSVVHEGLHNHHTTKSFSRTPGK

[6] = target: T5, human CTLA-4 (amino acids M1-N223) on stably transfected VI-fibroblast cells (human, UniProt P16410 36-223); test: ECL cell binding, VI-fibroblast/hCTLA-4 cells;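 note: antibodies bound to the cells on carbon electrode plates, detected via SULFO-TAG anti-IgG secondary (1 h, RT), electrochemiluminescence read as RLU over a concentration range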
T5 construct: also called VI-fibroblast/hCTLA-4
T5 sequence (P16410 36-223 limits assumed): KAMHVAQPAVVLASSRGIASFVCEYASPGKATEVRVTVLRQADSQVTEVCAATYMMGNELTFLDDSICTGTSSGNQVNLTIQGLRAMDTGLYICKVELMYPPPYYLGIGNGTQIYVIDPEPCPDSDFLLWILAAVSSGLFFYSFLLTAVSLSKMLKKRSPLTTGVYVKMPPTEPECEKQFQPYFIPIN

[7] = target: T4, recombinant hCTLA-4-mFc (human CTLA-4 …); test: competition ELISA, 400 pM hCTLA-4-mFc on plate-coated hB7-2-hIgG1-6His
[8] = target: T3, hCTLA-4 extracellular domain (aa 1-161) …; test: ECL cell binding, Jurkat/NFAT-Luc/hCTLA-4-hCD300a cells
[9] = target: T3, hCTLA-4 extracellular domain (aa 1-161) …; test: cell-based or functional assay; remark: listed apart in the source
[10] = target: T4, recombinant hCTLA-4-mFc (human CTLA-4 …); test: competition ELISA, 400 pM hCTLA-4-mFc on plate-coated hB7-2-hIgG1-6His; * value below theoretical bottom of assay
[11] = target: T4, recombinant hCTLA-4-mFc (human CTLA-4 …); test: competition ELISA, 200 pM hCTLA-4-mFc on plate-coated hB7-1-hIgG1-6His; * value below theoretical bottom of assay

Binder	Kd [1] [nM]	koff [1] [s⁻¹]	kon [1] [M⁻¹ s⁻¹]	t1/2 [1] [min]	Kd [2] [nM]	koff [2] [s⁻¹]	kon [2] [M⁻¹ s⁻¹]	t1/2 [2] [min]	EC50, T-cell/APC NFAT-luciferase assay, +Fc Block [3] [nM]	EC50, T-cell/APC NFAT-luciferase assay, +Fc Block [4] [nM]	EC50, T-cell/APC NFAT-luciferase assay, -Fc Block [4] [nM]	% Blockade [5] [%]	EC50 [6] [nM]	ratio of RLU signal to parental VI-fibroblast at 0.4 nM Ab [6] [ratio]	% Blockade [7] [%]	IC50 [5] [nM]	IC50 [7] [nM]	IC50 [10] [nM]	also measured
H1H19327P2 (antibody, human IgG1, V domains shown) VH: QVQLVESGGGVVQPGRSLRLSCAASGFTSSSYGIHWVRQAPGKGLEWVAVIWYDGSNKYYADSVKGRFTISRDNSKNTLYLQMNSLRAEDTAVYYCARGGPWGAFDIWGQGTMVTVSS VL: not shown	66.3	0.000585	8810	19.8	62.4	0.0117	188000	1	5.76	5.49	4.2	7	0.29	16	38				
H1H19313P (antibody, human IgG1, V domains shown) VH: QITLKESGPTLVKPTQTLTLTCTFSGFSLSTSGVGVGWIRQPPGVALEWLALIYWNDDKRFSPSLKSRLTITKDTSKNQVVLTMTNMDPVDTATYYCAHRRLGLYYFDYWGQGTLVTVSS VL: DIQLTQSPSFLSASVGDRVTITCWASQGISSYLAWYQQKPGKAPKLLIYAASTLQSGVPSRFSGSGSGTEFTLTISSLQPEDFATYYCQQVHIYPFTFGPGTKVDIK	1.55	0.000758	489000	15.2	0.976	0.000464	475000	24.9		3.47	1.69	98	0.16	11	99	0.4	0.77		EC50 [8]: 0.11 nM; EC50, T-cell/APC IL-2 release assay, APC HEK293/hCD20/hCD80 [9]: 21.9 nM; Fold induction of IL-2 at 100 nM, APC HEK293/hCD20/hCD80 [9]: 5.7 fold
H1H19291P (antibody, human IgG1, V domains shown) VH: QVQLVESGGGVVQPGRSLRLSCAASGFTFSTYGMHWVRQAPGKGLEWVTVIWYDGNNKYYADSVKGRFTISRDNSKNTLYLQMNNLRAEDTALYYCARGGGRLSYYHDYWGQGTLVTVSS VL: DIQMTQSPSSLSASVGDRVTITCRASQSISTFLNWYQQKPGKAPNLLIYGTSSLQSGVPSRFSGSGSGTDFTLTISSLQPEDFAAYYCQQTYSTPFTFGPGTKVDIK	13.8	0.00123	88800	9.4	13	0.00121	93100	9.6	7.67	3.92	2.36	98		5	99	2	2.5		
H1H19269P (antibody, human IgG1, V domains shown) VH: EVQLVESGGGLVQPGGSLKLSCAASGFTFSGSAMHWVRQASGKGLEWVGRIRGKANSFATAYSASVKGRFTISRDDSKNTASLQMNSLRTEDTAVYFCTREDQQLVRPYYYHYGMDVWGQGTTVTVSS VL: DIQMTQSPSSLSASVGDRVTITCRTSQSITNYLNWYQQKPGKAPKLLIYATASLQSGVPSRFSGSGSETDFTLTISSLQPEDFATYYCQQSYSTPLTFGGGTKVEIK	1.2	0.000474	394000	24.4	1.22	0.000435	356000	26.6				98	0.4	15	100	0.1		0.19	
H1H19281P (antibody, human IgG1, V domains shown) VH: QVQLVESGGGVVQPGRSLRLSCAASGLTFSYYGMHWVRQAPGKGLEWVAVISYDGSNKYYADSVKGRFTISRDNSKNTLYLQMNSLRAEDAAVYYCAKDLGGDDYYGMDVWGQGTTVTVSS VL: EIVLTQSPGTLSLSPGERATLSCRASQSVSRTYLAWYQQKPGQAPRLLIYGAFSRATGIPDRFSGSGSGTDFTLTISRLEPEDFAVYYCQQYGSSPYTFGQGTKLEIK	1.53	0.000741	484000	15.6	2.14	0.00101	472000	11.5				99	0.075	23	100			0.19	IC50 [11]: 0.094 nM
